Source: patent US20020147129A1

Target: embryonic chicken AT4 receptor (chicken)
Experiment: competition for [125I]Ang IV binding, E13 chicken chorioallantoic membranes

Sequence of embryonic chicken AT4 receptor (chicken) (F1NNE7 entry or part of it): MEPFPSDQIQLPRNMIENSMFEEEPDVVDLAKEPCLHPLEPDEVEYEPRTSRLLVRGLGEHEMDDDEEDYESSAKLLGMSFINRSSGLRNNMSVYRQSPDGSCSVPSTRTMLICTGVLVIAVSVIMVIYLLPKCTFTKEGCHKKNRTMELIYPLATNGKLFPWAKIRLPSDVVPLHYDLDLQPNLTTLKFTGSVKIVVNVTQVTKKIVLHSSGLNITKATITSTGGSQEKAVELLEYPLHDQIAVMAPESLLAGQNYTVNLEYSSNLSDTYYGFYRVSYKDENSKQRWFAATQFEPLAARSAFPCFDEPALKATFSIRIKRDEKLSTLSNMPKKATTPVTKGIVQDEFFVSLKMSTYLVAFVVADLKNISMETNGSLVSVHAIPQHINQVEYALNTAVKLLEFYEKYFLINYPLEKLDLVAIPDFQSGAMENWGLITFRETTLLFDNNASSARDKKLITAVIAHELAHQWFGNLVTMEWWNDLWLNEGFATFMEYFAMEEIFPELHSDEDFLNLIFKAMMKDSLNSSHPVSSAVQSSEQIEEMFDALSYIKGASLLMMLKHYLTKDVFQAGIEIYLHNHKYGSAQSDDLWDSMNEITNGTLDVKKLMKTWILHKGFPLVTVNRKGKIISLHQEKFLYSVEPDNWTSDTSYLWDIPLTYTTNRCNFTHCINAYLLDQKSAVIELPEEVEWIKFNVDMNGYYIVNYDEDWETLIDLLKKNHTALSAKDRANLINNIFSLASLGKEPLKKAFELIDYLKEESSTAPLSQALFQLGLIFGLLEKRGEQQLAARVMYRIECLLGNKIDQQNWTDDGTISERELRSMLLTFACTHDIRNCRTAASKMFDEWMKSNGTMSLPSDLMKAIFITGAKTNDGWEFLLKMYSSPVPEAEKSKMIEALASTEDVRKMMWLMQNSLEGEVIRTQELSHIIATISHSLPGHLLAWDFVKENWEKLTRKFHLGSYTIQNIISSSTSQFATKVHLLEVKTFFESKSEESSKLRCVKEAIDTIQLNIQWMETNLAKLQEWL

Substance: Nle^1-Y-I-amide (peptide)
- IC50: 2.2 µM
